Results from the supplement of paper PMC10724198.
± gives the standard deviation of the averaged measurements.

test system: Saccharomyces cerevisiae; assay: protein stability index of tFT-peptide fusion (C-terminal peptide) (PSI (0-1 scale)); higher = more stable (slower turnover); details: genetic background: wild type; temperature: 30 C
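Note: PSI is a weighted mean of sequencing reads over stability bins, variants kept only with over 10 reads, mCherry proximal and sfGFP distal, peptide attached via GGGS linker.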

TVTPPAPCPPAG and TWYYRYSCCQLP are within error of each other in protein stability index: 0.709 ± 0.032 for the first, 0.696 ± 0.014 for the second.

TYKEHNKTRETG and TYLQYKQKMKKH are the same in protein stability index: 0.686 ± 0.076 for the first, 0.686 ± 0.15 for the second.

First: TYSILLRVNCFK
Second: TYWAPPFPLSLP
The protein stability index of the first is higher: 0.601 ± 0.004 for the first, 0.52 ± 0.019 for the second.

Going from VACFLCTPKWFE to VACIIIDFTRWY, the protein stability index falls from 0.69 ± 0.057 to 0.536 ± 0.019.

First: VAESGRGAGGDF
Second: VAFPRSSTLGPY
The protein stability index of the first is higher: 0.7314 ± 0.0029 for the first, 0.696 ± 0.027 for the second.

VAGAGAGREAAY and VAGLQGGSGEGG are within error of each other in protein stability index: 0.616 ± 0.026 for the first, 0.576 ± 0.06 for the second.

VAGTLPFMEFTS and VAIGGGLGGDRC are within error of each other in protein stability index: 0.722 ± 0.023 for the first, 0.719 ± 0.032 for the second.

Compared with VALPPSHLSAFL, VALSLTSIFFMS is lower in protein stability index: 0.6887 ± 0.0039 for the first, 0.556 ± 0.041 for the second.

VANGGVIVRGRC and VAPAHPPHHRNL are within error of each other in protein stability index: 0.668 ± 0.012 for the first, 0.6626 ± 0.0036 for the second.

VAPPIPSKAGHL and VAPPLAPSPPLP are within error of each other in protein stability index: 0.753 ± 0.2 for the first, 0.6678 ± 0.0013 for the second.

VAPPSSFPPPRL and VASDGGYGYLRF are within error of each other in protein stability index: 0.726 ± 0.056 for the first, 0.797 ± 0.077 for the second.

VASLGFVGFCRF and VAWAGRGPGRSG are the same in protein stability index: 0.713 ± 0.06 for the first, 0.713 ± 0.024 for the second.

VAWCYCSGDTGV and VAWYSLAEGCEG are within error of each other in protein stability index: 0.7 ± 0.035 for the first, 0.641 ± 0.043 for the second.

First: VCALGWWASWVW
Second: VCDGIIQGNGTI
The protein stability index of the first is lower: 0.5512 ± 0.0013 for the first, 0.705 ± 0.021 for the second.

Compared with VCDLLLTLSFCV, VCFCLGNVTMEF is higher in protein stability index: 0.587 ± 0.017 for the first, 0.732 ± 0.017 for the second.

First: VCGRWVYPGGCR
Second: VCGWGFLLGVFV
The protein stability index of the first is higher: 0.61 ± 0.01 for the first, 0.5107 ± 0.0022 for the second.

First: VCGYLSIVIWLR
Second: VCIGVGGGVLGL
The protein stability index of the first is lower: 0.423 ± 0.24 for the first, 0.6746 ± 0.0036 for the second.

VCNLSRRGLCHG and VCPRLISPLILL are the same in protein stability index: 0.584 ± 0.11 for the first, 0.584 ± 0.027 for the second.

VCRADADRFVGL and VCRCYILSFPQR are within error of each other in protein stability index: 0.71 ± 0.059 for the first, 0.688 ± 0.028 for the second.

VCRGAIPIERFR and VCSEARRKSVAL are within error of each other in protein stability index: 0.715 ± 0.15 for the first, 0.673 ± 0.02 for the second.

Going from VCVAACVGAHFA to VDASQTRYSRGS, the protein stability index rises from 0.656 ± 0.083 to 0.73964 ± 0.00026.

VDDIIGIRKRNT and VDFGTLISEDRM are within error of each other in protein stability index: 0.691 ± 0.07 for the first, 0.736 ± 0.036 for the second.

Going from VDFLLRDPPGPS to VDGSYCGTLASY, the protein stability index falls from 0.7201 ± 0.0065 to 0.6568 ± 0.0033.

Going from VDHRFLWALSSF to VDRGGRVGERGR, the protein stability index falls from 0.751 ± 0.043 to 0.597 ± 0.031.

VDSAPRPPPEPC and VDSSGSQPRGNR are within error of each other in protein stability index: 0.649 ± 0.041 for the first, 0.648 ± 0.039 for the second.

VDTNIRRTATYS and VDTPPPHHSPLL are within error of each other in protein stability index: 0.729 ± 0.066 for the first, 0.733 ± 0.068 for the second.

VEGCVKGGCGGG and VERSEGRLGVVG are within error of each other in protein stability index: 0.662 ± 0.052 for the first, 0.686 ± 0.08 for the second.

First: VESGVLCPGVGA
Second: VEVRRMCSGQLG
The protein stability index of the first is lower: 0.634 ± 0.02 for the first, 0.7136 ± 0.00096 for the second.

Going from VEWLGWFGISNK to VFAGLHSLCFFF, the protein stability index falls from 0.76 ± 0.017 to 0.641 ± 0.023.

Going from VFATRALSQRLI to VFCGCGGCVSLG, the protein stability index rises from 0.526 ± 0.011 to 0.655 ± 0.014.

VFDIQLLDGGGP and VFFPLFLNGSNV are within error of each other in protein stability index: 0.685 ± 0.025 for the first, 0.695 ± 0.018 for the second.

Compared with VFFRGVVVLLRL, VFGCAGVGGDCG is higher in protein stability index: 0.472 ± 0.048 for the first, 0.67 ± 0.028 for the second.

Compared with VFGRQVRVNGGS, VFLGRWKFFFWG is lower in protein stability index: 0.707 ± 0.043 for the first, 0.619 ± 0.023 for the second.

First: VFQVFSVGTCSG
Second: VFRFGVCDDWCV
The protein stability index of the first is lower: 0.6451 ± 0.0039 for the first, 0.765 ± 0.018 for the second.

VFRGGGAVGSVR and VFRSRTSSLFTP are within error of each other in protein stability index: 0.683 ± 0.043 for the first, 0.6794 ± 0.0058 for the second.

Compared with VFVDGVSYGGLC, VFVFRLYFCGCC is lower in protein stability index: 0.6811 ± 0.0058 for the first, 0.495 ± 0.015 for the second.

VFVRSNSGACKN and VGAGAGGVGWVL are within error of each other in protein stability index: 0.682 ± 0.027 for the first, 0.749 ± 0.056 for the second.

VGCLGYNSAGIN and VGCPLSLDAPEG are within error of each other in protein stability index: 0.6968 ± 0.0065 for the first, 0.687 ± 0.029 for the second.

VGDGGGEVMGEA and VGEAGTRASVPV are within error of each other in protein stability index: 0.677 ± 0.053 for the first, 0.665 ± 0.12 for the second.

VGELCGVGGRGG and VGFCFDGVHFRA are within error of each other in protein stability index: 0.68 ± 0.13 for the first, 0.639 ± 0.016 for the second.

VGFFLGVLLSLL and VGFGLIVWSSGW are within error of each other in protein stability index: 0.521 ± 0.0085 for the first, 0.529 ± 0.0077 for the second.

Compared with VGGAGDWRWGVW, VGGAVDFSVFFC is lower in protein stability index: 0.805 ± 0.018 for the first, 0.585 ± 0.018 for the second.

VGGCRLTRSSVW and VGGDRVGPEPEC are within error of each other in protein stability index: 0.688 ± 0.011 for the first, 0.718 ± 0.063 for the second.

VGGEGKVVRGQE and VGGGACVWSRRR are within error of each other in protein stability index: 0.6518 ± 0.00034 for the first, 0.698 ± 0.05 for the second.

VGGGWGGGVVLV and VGGLMVYTGDVA are within error of each other in protein stability index: 0.696 ± 0.0071 for the first, 0.704 ± 0.015 for the second.

VGGRVCQSEGVE and VGGWGERGRGGS are within error of each other in protein stability index: 0.685 ± 0.0058 for the first, 0.696 ± 0.015 for the second.

VGHRGVQAGGVG and VGKTVKQLSLIS are within error of each other in protein stability index: 0.618 ± 0.016 for the first, 0.597 ± 0.039 for the second.

Compared with VGLAVWAAKLGR, VGLEVGPLVGGE is lower in protein stability index: 0.739 ± 0.018 for the first, 0.6921 ± 0.0029 for the second.

VGLGLSVGKKEI and VGLLWEYVRLDG are within error of each other in protein stability index: 0.651 ± 0.098 for the first, 0.7079 ± 0.0036 for the second.

Compared with VGLTGFQHTEWG, VGMGRAPGPDPA is lower in protein stability index: 0.753 ± 0.027 for the first, 0.646 ± 0.0093 for the second.

VGPGRRGWEGAP and VGPPWSISLSII are within error of each other in protein stability index: 0.663 ± 0.022 for the first, 0.636 ± 0.013 for the second.

VGQVVTCFMSDA and VGSCGGGKVVVE are within error of each other in protein stability index: 0.678 ± 0.028 for the first, 0.6555 ± 0.00076 for the second.

Going from VGSDICLGLCLL to VGSKGCDGCNRA, the protein stability index falls from 0.871 ± 0.02 to 0.655 ± 0.047.

First: VGTAVVDRHGVR
Second: VGTVREVYCQGG
The protein stability index of the first is lower: 0.603 ± 0.045 for the first, 0.678 ± 0.014 for the second.

VGVFRCLPGQVG and VGVGDGLIRRSS are within error of each other in protein stability index: 0.677 ± 0.057 for the first, 0.7338 ± 0.004 for the second.

First: VGVLCWLFLGVG
Second: VGVWDGCLLGLG
The protein stability index of the first is lower: 0.501 ± 0.008 for the first, 0.695 ± 0.028 for the second.

First: VGWAVNGSMVVG
Second: VGWCPLVGGSGQ
The protein stability index of the first is lower: 0.662 ± 0.021 for the first, 0.753 ± 0.039 for the second.

VGYGEVSGGGRM and VHFSSSCDYLIV are within error of each other in protein stability index: 0.732 ± 0.026 for the first, 0.653 ± 0.081 for the second.

VHGGKREGGGEG and VHRFPPAPFCTP are within error of each other in protein stability index: 0.667 ± 0.039 for the first, 0.734 ± 0.047 for the second.

VHRPFDGFSRAG and VHSMSRTFARPV are within error of each other in protein stability index: 0.662 ± 0.011 for the first, 0.683 ± 0.051 for the second.

Going from VIASPALLLPLF to VIDFAELGTVAH, the protein stability index rises from 0.642 ± 0.062 to 0.7301 ± 0.005.

VIDTGAGSILEI and VIESRNEEGGRV are within error of each other in protein stability index: 0.7 ± 0.042 for the first, 0.727 ± 0.022 for the second.

Compared with VIFCFCSRSCFL, VIGAGTGCVVVG is higher in protein stability index: 0.643 ± 0.037 for the first, 0.72 ± 0.013 for the second.

First: VIMAEVLCVSNL
Second: VIPREPSEPHTA
The protein stability index of the first is lower: 0.508 ± 0.0071 for the first, 0.639 ± 0.021 for the second.

Going from VIVKNINKNTQI to VKGKLGSGSYIH, the protein stability index falls from 0.717 ± 0.038 to 0.644 ± 0.022.

VKQFLICKNGRS and VKSFRFPHPVWN are within error of each other in protein stability index: 0.728 ± 0.12 for the first, 0.682 ± 0.011 for the second.

VKWAIWGGMEWR and VKWFRESRMVGA are within error of each other in protein stability index: 0.667 ± 0.07 for the first, 0.65 ± 0.027 for the second.

VLADIGSAGIGR and VLCRSLAGCCFV are within error of each other in protein stability index: 0.711 ± 0.014 for the first, 0.709 ± 0.012 for the second.

VLFEARFSLRQS and VLFPLPFPCVSF are within error of each other in protein stability index: 0.6768 ± 0.0044 for the first, 0.681 ± 0.06 for the second.

First: VLFPPGFPPGLL
Second: VLFPPLCLSFCF
The protein stability index of the first is higher: 0.817 ± 0.04 for the first, 0.498 ± 0.044 for the second.

VLGASFTATYFQ and VLGCSVIADSCR are within error of each other in protein stability index: 0.749 ± 0.077 for the first, 0.637 ± 0.053 for the second.

VLGDSASFWSCP and VLGGGPSIRGLM are within error of each other in protein stability index: 0.765 ± 0.15 for the first, 0.655 ± 0.027 for the second.

Going from VLGVGSFCLGVV to VLGWRLLPTAGI, the protein stability index rises from 0.622 ± 0.018 to 0.703 ± 0.062.

VLILDVSFPRCD and VLLLLYGMFRGR are within error of each other in protein stability index: 0.766 ± 0.18 for the first, 0.59 ± 0.0094 for the second.

Compared with VLLPEPCALRFT, VLLRHRPKYACR is higher in protein stability index: 0.551 ± 0.029 for the first, 0.645 ± 0.022 for the second.

VLLRRRSIWPLG and VLLRVSEQVSRV are within error of each other in protein stability index: 0.72 ± 0.0063 for the first, 0.676 ± 0.1 for the second.

VLRFATIKRMYP and VLRPFTPPSSRF are within error of each other in protein stability index: 0.661 ± 0.018 for the first, 0.723 ± 0.047 for the second.

VLSISINRGVRI and VLSRVSMSLGSP are within error of each other in protein stability index: 0.664 ± 0.0039 for the first, 0.767 ± 0.16 for the second.

VLTGLLFRRPRS and VLVEWQTCRTRK are within error of each other in protein stability index: 0.604 ± 0.0062 for the first, 0.656 ± 0.097 for the second.

VLVGRAGIVFLG and VLVVRERGAVDG are within error of each other in protein stability index: 0.573 ± 0.04 for the first, 0.697 ± 0.1 for the second.
